Results: the RNAGym collection of RNA variant scans (doi:10.1073/pnas.2313332121)
Fewer inactive variants are shown than the library holds.

B1: TPR 5TU (parent)
chain: GGAUCUUCUCGAUCUAACAAAAAAGACAAAUCUGCCACAAAGCUUGAGAGCAUCUUCGGAUGCAGAGGCGGCAGCCUUCGGUGGCGCGAUAGCGCCAACGUUCUCAACUAUGACACGCAAAACGCGUGCUCCGUUGAAUGGAGUUUAUCAUG

Variants of: B1
Assay: polymerase ribozyme fitness, log enrichment relative to wild type (log ratio); higher = more active; in vitro selection for triplet polymerase activity
Outline: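 Mutant libraries were PCR-built and transcribed for each subunit of a heterodimeric triplet polymerase ribozyme and selected for one round in triplicate at −7 °C, frozen, before gel excision of extended constructs and streptavidin-bead capture. Input and output libraries were Illumina-sequenced, keeping genotypes with ≥10 input reads and ≥1 read per output. Fitness is a logarithmic ratio of genotype to wild-type enrichment, in base 2, using inverse-variance-weighted replicate averages.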

First: U151C
Second: U151A
The “polymerase ribozyme fitness (log ratio)” value of the first is higher: -2.78 for the first, -3.44 for the second.

Compared with U151G, A150C G152A is higher in “polymerase ribozyme fitness (log ratio)” value: -3.49 for the first, -3 for the second.

Going from A150U to A150C, the “polymerase ribozyme fitness (log ratio)” value falls from 1.3 to -2.71.

Compared with A150G, C149G is lower in “polymerase ribozyme fitness (log ratio)” value: -0.734 for the first, -2.78 for the second.

First: C149U
Second: C149A
The “polymerase ribozyme fitness (log ratio)” value of the first is higher: -0.847 for the first, -3.33 for the second.
